Literature values, collected in patent US11530434B2, “Cell mass evaluation method and device for analyzing state of cell mass” (HAMAMATSU PHOTONICS K.K., priority 2017, dated 2022).

System: cell morphology
Conditions: compared to the control state

B1: TGF-β2: reagent “TGF-β2” whose addition acts on the cell morphology (reported in Non-Patent Document 3) (protein, UniProt P61812 303-414, looked up)
Transforming growth factor …: ALDAAYCFRNVQDNCCLRPLYIDFKRDLGWKWIHEPKGYNANFCAGACPYLWSSDTQHSRVLSLYNTINPEASASPCCVSQDLEPLTILYYIGKTPKIEQLSNMIVKSCKCS
  change of cell shape on addition of the reagent: makes the cell shape elongated
